Article PMC9722636

Molecular target: recombinant HAstV MLB1 capsid spike domain (residues 399-653 of the HAstV MLB1 capsid protein) (Human astrovirus MLB1)
Test: SEC

## recombinant HAstV MLB1 capsid spike domain (residues 399-653 of the HAstV MLB1 capsid protein) (domain or fragment)
  stoichiometry N: 2
